Blank lines part the entries; values can stand above or below the binder they belong to.
Key:
[1] = target: T1, human Siglec15-Fc protein (human); assay: competitive ELISA: biotin-labeled human Siglec15-Fc in solution, competitor coated benchmark; curve levels off at OD about 0.55, inhibition incomplete
T1 construct: In house made; also called recombinant human Siglec15 protein with human IgG1 Fc at the C-terminus
Procedure: The abilities of the anti-Siglec15 antibodies of the disclosure to block benchmark-human Siglec15 binding were measured in a competitive ELISA assay. Briefly, the benchmark was coated on 96-well micro plates at 2 μg/mL in PBS, 100 μl per well, and incubated for 2 hours at 37° C. Then plates were washed once with wash buffer, and blocked with 5% w/v non-fatty milk in PBST overnight at 4° C. The next day, the anti-Siglec15 antibodies of the disclosure or controls were diluted with biotin labeled human Siglec15-Fc protein (prepared in-house with SEQ ID NO: 19, 37 ng/ml in PBST with 2.5% w/v non-fatty milk), starting at 80 nM with a 4-fold serial dilution, and incubated at room temperature for 40 minutes. After plate washing 4 times, the antibody/Siglec15-Fc mixtures were added to benchmark coated plates, 100 μl per well. After incubation at 37° C. for 40 minutes, plates were washed 4 times again using wash buffer. Then the plates were added and incubated with 100 μl/well streptavidin conjugated HRP for 40 minutes at 37° C. […] Finally, TMB was added and the reaction was stopped using 1M H₂SO₄, and the absorbance of each well was read on a microplate reader using dual wavelength mode with 450 nm for TMB and 630 nm as the reference wavelength, then the OD (450-630) values were plotted against antibody concentration. Data was analyzed using Graphpad Prism software and IC₅₀ values were reported.

[2] = target: T1, human Siglec15-Fc protein; assay: competitive ELISA: coated human Siglec15-Fc, blocked ligand biotin-labeled human LRRC4C-Fc
Procedure: Serially diluted anti-Siglec15 antibodies or the controls (starting at 66.67 nM with a 5-fold serial dilution) in PBST with 2.5% w/v non-fatty milk were added to the Siglec15-Fc bound plates, 100 μl per well, and incubated with the human Siglec15-Fc protein at 37° C. for 40 minutes. Plates were washed 4 times again using wash buffer, then added and incubated for 40 minutes at 37° C. with 100 μl/well 290 ng/ml biotin-labeled human LRRC4C-Fc protein (prepared in-house with SEQ ID NO: 23). Plates were washed again using wash buffer. Thereafter, the plates were added with 100 μl/well streptavidin conjugated HRP (1:5000 dilution in PBST buffer, Jackson Immunoresearch, Cat #016-030-084) and incubated for 40 minutes at 37° C. Plates were washed again using wash buffer. Finally, TMB was added and the reaction was stopped using 1M H₂SO₄, and the absorbance of each well was read on a microplate reader using dual wavelength mode with 450 nm for TMB and 630 nm as the reference wavelength, then the OD (450-630) values were plotted against antibody concentration. Data was analyzed using Graphpad Prism software and IC₅₀ values were reported.

[3] = target: T2, cynomolgus monkey Siglec15-his protein (cynomolgus monkey); assay: indirect ELISA on coated cynomolgus Siglec15-his
T2 construct: In house made; also called Cynomolgus Siglec15-his; cynomolgus Siglec15
T2 chain: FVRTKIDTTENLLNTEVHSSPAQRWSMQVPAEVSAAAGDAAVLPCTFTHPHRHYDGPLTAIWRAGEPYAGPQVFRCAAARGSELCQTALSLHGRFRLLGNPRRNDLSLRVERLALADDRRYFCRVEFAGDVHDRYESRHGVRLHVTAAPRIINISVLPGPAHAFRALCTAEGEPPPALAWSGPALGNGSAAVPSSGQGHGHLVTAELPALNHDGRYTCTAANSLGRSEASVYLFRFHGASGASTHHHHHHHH
Procedure: The anti-Siglec15 antibodies' cross-reactions to cynomolgus or mouse Siglec15 proteins were measured. Briefly, 96-well micro plates were coated with 100 μl of 2 μg/ml cynomolgus Siglec15-his protein (in house made with SEQ ID NO: 21), or 2 μg/ml mouse Siglec15-his protein (in house made with SEQ ID NO: 22) in carbonate/bicarbonate buffer (pH 9.6) for 2 hours at 37° C. ELISA plates were washed once with wash buffer (PBS+0.05% v/v Tween-20, PBST) and then blocked with 200 μl/well blocking buffer (5% w/v non-fatty milk in PBST) overnight at 4° C. Plates were washed 4 times and incubated with 100 μl serially diluted anti-Siglec15 antibodies of the disclosure or controls (starting at 66.7 nM, 5-fold serial dilution in PBST with 2.5% w/v non-fatty milk) for 40 minutes at 37° C. […] The reaction was stopped 4 minutes later at room temperature with 50 μl 1M H₂SO₄, and the absorbance of each well was read on a microplate reader using dual wavelength mode with 450 nm for TMB and 630 nm as the reference wavelength, then the OD (450-630) values were plotted against antibody concentration. Data was analyzed using Graphpad Prism software and EC₅₀ values were reported.

IC50 [1]: ~0.0777 nM
B1: A1E10G7H9 (antibody, V domains shown)
VH: QVQLQESGPGLVKPSGTLSLTCAVSGGSISSSNWWHWVRQPPGKGLEWIGEIYHSGNTNYKPSLKSRVTISVDKSKNQFSLKLSSVTAADTAVYYCARDEGNGWSNAFDIWGQGTMVTVSS
VL: ENVLTQSPGTLSLSPGERVTLSCRASQSVSSSYLAWYQQKPGQAPRFLIYGASGGATGIPDRFSGSGSGTDFTLTISRLEPEDFAVYYCQQYGSSPITFGQGTRLEIK
notes: Fully human antibody from transgenic mouse hybridoma

IC50 [2]: 0.855 nM
EC50 [3]: 0.461 nM
B2: anti-Siglec15 benchmark (ch5G12) (antibody, human IgG1, kappa, V domains shown)
VH: QVQLQQPGAELVKPGASVKMSCKASGYTFTSYWITWVIQRPGQGLEWIGDIYCGSDTMHYNEKFKNKATLTVDTSSSTAYMQLSSLTSEDSAVYYCARWWDYGSSYDYFDYWGQGTTLTVSS
VL: DIKMTQSPSSMYASLGERVTITCKASQDINSYLSWFQQKPGKSPKTLIYRANRLVDGVPSRFSGSGSGQDYSLTISSLEYEDMGIYYCLQYDEFPYTFGGGTKLEIKR
notes: ch5G12 (US 20190202912A1); also called BM; Siglec15-ch5G9
